Experimental data reported in PMC7570871, “Evaluation of a New ^177Lu-Labeled Somatostatin Analog for the Treatment of Tumors Expressing Somatostatin Receptor Subtypes 2 and 5” (Molecules, 2020).

Experiments:
[1] = format: physicochemical; conditions: pH 7.4
Procedure: To a pre-saturated mixture of 500 µL 1-octanol and 500 µL of phosphate-buffered saline (PBS) (pH 7.4), 10 µL of 1 µM of the ^177Lu-labeled conjugates were added. The solution was vortexed for 1 h to reach the equilibrium and then centrifuged (3000 rpm) for 10 min. From each phase, 100 µL of the aliquot was removed and measured in a γ-counter. Each measurement was repeated three times. Care was taken to avoid cross-contamination between the phases. The partition coefficient was calculated as the average of the logarithmic values (n = 3) of the ratio between the radioactivity in the organic and the PBS phase.

in vivo [2] = conditions: female, mouse, total radioactivity
Procedure: The Veterinary Office (Department of Health) of the Cantonal Basel-Stadt approved the animal experiments (approval no. 2799) in accordance with the Swiss regulations for animal treatment. Female athymic Nude-Foxn1^nu/Foxn1^+ mice (Envigo, The Netherlands), 4–6 weeks old, were injected subcutaneously with 10^7 HEK-SST2 cells in the right shoulder and 10^7 HEK-SST5 cells in the left shoulder, freshly suspended in 100 μL sterile phosphate-buffered saline. The tumors were allowed to grow for 2–3 weeks.
(§1) At the selected time points, the mice were sacrificed and the organs of interest were collected, rinsed, blotted, weighed and counted in a γ-counter. The results are expressed as a percentage of injected activity per gram (%IA/g) obtained by extrapolation from counts of an aliquot taken from the injected solution as a standard.
as §1, with “preselected” for “selected”

in vivo [3] = conditions: mouse, 100 pmol, total radioactivity
Procedure: The mice were sacrificed 4 h p.i. and accumulation of the radiotracer in the tumors and in all organs of interest was quantified in a γ-counter.

[4] = athymic Nude-Foxn1^nu/Foxn1^+, 100 pmol, Pancreas uptake
[5] = athymic Nude-Foxn1^nu/Foxn1^+, 100 pmol, Spleen uptake
[6] = athymic Nude-Foxn1^nu/Foxn1^+, 100 pmol, Stomach uptake
[7] = athymic Nude-Foxn1nu/Foxn1+, 10 pmol, Adrenal uptake
[8] = athymic Nude-Foxn1nu/Foxn1+, 10 pmol, Blood uptake
[9] = athymic Nude-Foxn1nu/Foxn1+, 10 pmol, Bone uptake
[10] = athymic Nude-Foxn1nu/Foxn1+, 10 pmol, Heart uptake
[11] = athymic Nude-Foxn1nu/Foxn1+, 10 pmol, Intestine uptake
[12] = athymic Nude-Foxn1nu/Foxn1+, 10 pmol, Kidney uptake
[13] = athymic Nude-Foxn1nu/Foxn1+, 10 pmol, Liver uptake
[14] = athymic Nude-Foxn1nu/Foxn1+, 10 pmol, Lung uptake
[15] = athymic Nude-Foxn1nu/Foxn1+, 10 pmol, Muscle uptake
[16] = athymic Nude-Foxn1nu/Foxn1+, 10 pmol, Pancreas uptake
[17] = athymic Nude-Foxn1nu/Foxn1+, 10 pmol, SST2-tumor uptake
[18] = athymic Nude-Foxn1nu/Foxn1+, 10 pmol, SST5-tumor uptake
[19] = athymic Nude-Foxn1nu/Foxn1+, 10 pmol, Spleen uptake
[20] = athymic Nude-Foxn1nu/Foxn1+, 10 pmol, Stomach uptake
[21] = athymic Nude-Foxn1nu/Foxn1+, 100 pmol, Adrenal uptake
[22] = athymic Nude-Foxn1nu/Foxn1+, 100 pmol, Blood uptake
[23] = athymic Nude-Foxn1nu/Foxn1+, 100 pmol, Bone (Femur) uptake
[24] = athymic Nude-Foxn1nu/Foxn1+, 100 pmol, Femur uptake
[25] = athymic Nude-Foxn1nu/Foxn1+, 100 pmol, Heart uptake
[26] = athymic Nude-Foxn1nu/Foxn1+, 100 pmol, Intestine uptake
[27] = athymic Nude-Foxn1nu/Foxn1+, 100 pmol, Kidney uptake
[28] = athymic Nude-Foxn1nu/Foxn1+, 100 pmol, Liver uptake
[29] = athymic Nude-Foxn1nu/Foxn1+, 100 pmol, Lung uptake
[30] = athymic Nude-Foxn1nu/Foxn1+, 100 pmol, Muscle uptake
[31] = athymic Nude-Foxn1nu/Foxn1+, 100 pmol, Pancreas uptake
[32] = athymic Nude-Foxn1nu/Foxn1+, 100 pmol, SST2-tumor uptake
[33] = athymic Nude-Foxn1nu/Foxn1+, 100 pmol, SST5-tumor uptake
[34] = athymic Nude-Foxn1nu/Foxn1+, 100 pmol, Spleen uptake
[35] = athymic Nude-Foxn1nu/Foxn1+, 100 pmol, Stomach uptake

## CC(C)[C@@H]1NC(=O)[C@H](CCCCN)NC(=O)[C@@H](Cc2c[nH]c3ccccc23)NC(=O)[C@H](Cc2ccc(O)c(I)c2)NC(=O)[C@@H](NC(=O)[C@@H](Cc2ccc(N)c(I)c2)NC(=O)CN2CCN(CC(=O)O)CCN(CC(=O)O)CCN(CC(=O)O)CC2)CSSC[C@@H](C(=O)N[C@H](C(N)=O)[C@@H](C)O)NC1=O [[^177Lu]Lu-DOTA-ST8950, metal not drawn]
[1]
  logD: -1.2 ± 0.1
In vivo [2]; athymic Nude-Foxn1^nu/Foxn1^+, 100 pmol, Liver uptake
  tissue uptake at 168 h: 0.54 ± 0.09 %ID/g
In vivo [2]; [4]
  tissue uptake at 24 h: 1.68 ± 0.27 %ID/g
  tissue uptake at 72 h: 0.72 ± 0.14 %ID/g
  tissue uptake at 168 h: 0.37 ± 0.05 %ID/g
In vivo [2]; [5]
  tissue uptake at 24 h: 0.36 ± 0.24 %ID/g
  tissue uptake at 72 h: 0.38 ± 0.12 %ID/g
  tissue uptake at 168 h: 0.27 ± 0.05 %ID/g
In vivo [2]; [6]
  tissue uptake at 24 h: 2.61 ± 0.44 %ID/g
  tissue uptake at 72 h: 1.66 ± 0.49 %ID/g
  tissue uptake at 168 h: 0.99 ± 0.04 %ID/g
In vivo [2]; [7]
  tissue uptake at 1 h: 6.01 ± 1.15 %ID/g
  tissue uptake at 4 h: 5.37 ± 1.17 %ID/g
In vivo [2]; [8]
  tissue uptake at 1 h: 1.3 ± 0.24 %ID/g
  tissue uptake at 4 h: 0.15 ± 0.02 %ID/g
In vivo [2]; [9]
  tissue uptake at 1 h: 1.35 ± 0.25 %ID/g
  tissue uptake at 4 h: 1.12 ± 0.38 %ID/g
In vivo [2]; [10]
  tissue uptake at 1 h: 0.84 ± 0.18 %ID/g
  tissue uptake at 4 h: 0.2 ± 0.04 %ID/g
In vivo [2]; [11]
  tissue uptake at 1 h: 3.08 ± 0.38 %ID/g
  tissue uptake at 4 h: 2.29 ± 0.42 %ID/g
In vivo [2]; [12]
  tissue uptake at 1 h: 11.7 ± 1.79 %ID/g
  tissue uptake at 4 h: 10.8 ± 1.27 %ID/g
In vivo [2]; [13]
  tissue uptake at 1 h: 2.73 ± 0.59 %ID/g
  tissue uptake at 4 h: 2.2 ± 0.27 %ID/g
In vivo [2]; [14]
  tissue uptake at 1 h: 7.12 ± 2.59 %ID/g
  tissue uptake at 4 h: 3.81 ± 0.98 %ID/g
In vivo [2]; [15]
  tissue uptake at 1 h: 0.4 ± 0.07 %ID/g
  tissue uptake at 4 h: 0.13 ± 0.02 %ID/g
In vivo [2]; [16]
  tissue uptake at 1 h: 5.99 ± 1.75 %ID/g
  tissue uptake at 4 h: 3.21 ± 0.5 %ID/g
In vivo [2]; [17]
  tissue uptake at 1 h: 12.1 ± 3.94 %ID/g
  tissue uptake at 4 h: 10.3 ± 2.78 %ID/g
In vivo [2]; [18]
  tissue uptake at 1 h: 1.94 ± 0.46 %ID/g
  tissue uptake at 4 h: 1.52 ± 0.75 %ID/g
In vivo [2]; [19]
  tissue uptake at 1 h: 1.82 ± 0.26 %ID/g
  tissue uptake at 4 h: 0.96 ± 0.18 %ID/g
In vivo [2]; [20]
  tissue uptake at 1 h: 9.68 ± 2.34 %ID/g
  tissue uptake at 4 h: 6.03 ± 1.28 %ID/g
In vivo [2]; [21]
  tissue uptake at 1 h: 4.23 ± 0.68 %ID/g
  tissue uptake at 4 h: 5.21 ± 1.92 %ID/g
  tissue uptake at 24 h: 3.81 ± 1.08 %ID/g
  tissue uptake at 72 h: 2.86 ± 1.3 %ID/g
  tissue uptake at 168 h: 1.84 ± 0.49 %ID/g
In vivo [2]; [22]
  tissue uptake at 1 h: 0.96 ± 0.23 %ID/g
  tissue uptake at 4 h: 0.09 ± 0.03 %ID/g
  tissue uptake at 24 h: 0.02 %ID/g
  tissue uptake at 72 h: 0.01 %ID/g
In vivo [2]; [23]
  tissue uptake at 1 h: 0.74 ± 0.11 %ID/g
  tissue uptake at 4 h: 0.49 ± 0.11 %ID/g
In vivo [2]; [24]
  tissue uptake at 24 h: 0.3 ± 0.05 %ID/g
  tissue uptake at 72 h: 0.19 ± 0.05 %ID/g
  tissue uptake at 168 h: 0.11 ± 0.01 %ID/g
In vivo [2]; [25]
  tissue uptake at 1 h: 0.69 ± 0.09 %ID/g
  tissue uptake at 4 h: 0.17 ± 0.03 %ID/g
  tissue uptake at 24 h: 0.08 ± 0.01 %ID/g
  tissue uptake at 72 h: 0.06 ± 0.02 %ID/g
  tissue uptake at 168 h: 0.04 ± 0.01 %ID/g
In vivo [2]; [26]
  tissue uptake at 1 h: 1.95 ± 0.65 %ID/g
  tissue uptake at 4 h: 1.14 ± 0.42 %ID/g
  tissue uptake at 24 h: 0.51 ± 0.09 %ID/g
  tissue uptake at 72 h: 0.28 ± 0.06 %ID/g
  tissue uptake at 168 h: 0.12 ± 0.02 %ID/g
In vivo [2]; [27]
  tissue uptake at 1 h: ~10 %ID/g
  tissue uptake at 4 h: ~10 %ID/g
  tissue uptake at 24 h: 5.99 ± 0.41 %ID/g
  tissue uptake at 72 h: 3.2 ± 0.84 %ID/g
  tissue uptake at 168 h: 1.42 ± 0.38 %ID/g
In vivo [2]; [28]
  tissue uptake at 1 h: 2.6 ± 0.42 %ID/g
  tissue uptake at 4 h: 2.19 ± 0.48 %ID/g
  tissue uptake at 24 h: 1.23 ± 0.16 %ID/g
  tissue uptake at 72 h: 0.85 ± 0.21 %ID/g
In vivo [2]; [29]
  tissue uptake at 1 h: 3.9 ± 0.84 %ID/g
  tissue uptake at 4 h: 1.69 ± 0.4 %ID/g
  tissue uptake at 24 h: 1.16 ± 0.1 %ID/g
  tissue uptake at 72 h: 0.46 ± 0.08 %ID/g
  tissue uptake at 168 h: 0.23 ± 0.09 %ID/g
In vivo [2]; [30]
  tissue uptake at 1 h: 0.3 ± 0.07 %ID/g
  tissue uptake at 4 h: 0.1 ± 0.02 %ID/g
  tissue uptake at 24 h: 0.06 %ID/g
  tissue uptake at 72 h: 0.04 ± 0.01 %ID/g
  tissue uptake at 168 h: 0.01 %ID/g
In vivo [2]; [31]
  tissue uptake at 1 h: 6.36 ± 1.39 %ID/g
  tissue uptake at 4 h: 4.38 ± 1.02 %ID/g
In vivo [2]; [32]
  tissue uptake at 1 h: 14.2 ± 1.78 %ID/g
  tissue uptake at 4 h: 15.5 ± 3.63 %ID/g
  tissue uptake at 24 h: 9.32 ± 2.02 %ID/g
  tissue uptake at 72 h: 4.22 ± 1.43 %ID/g
  tissue uptake at 168 h: 0.79 ± 0.13 %ID/g
In vivo [2]; [33]
  tissue uptake at 1 h: 1.78 ± 0.35 %ID/g
  tissue uptake at 4 h: 1.87 ± 0.49 %ID/g
  tissue uptake at 24 h: 0.88 ± 0.16 %ID/g
  tissue uptake at 72 h: 0.35 ± 0.08 %ID/g
  tissue uptake at 168 h: 0.08 ± 0.01 %ID/g
In vivo [2]; [34]
  tissue uptake at 1 h: 1.29 ± 0.19 %ID/g
  tissue uptake at 4 h: 0.68 ± 0.11 %ID/g
In vivo [2]; [35]
  tissue uptake at 1 h: 5.63 ± 0.79 %ID/g
  tissue uptake at 4 h: 4.94 ± 0.9 %ID/g
In vivo [3]; Adrenal uptake
  tissue uptake at 4 h: 5.45 ± 2.26 %ID/g
In vivo [3]; Blood uptake
  tissue uptake at 4 h: 0.1 ± 0.02 %ID/g
In vivo [3]; Femur uptake
  tissue uptake at 4 h: 0.56 ± 0.24 %ID/g
In vivo [3]; Heart uptake
  tissue uptake at 4 h: 0.18 ± 0.03 %ID/g
In vivo [3]; Intestine uptake
  tissue uptake at 4 h: 1.35 ± 0.14 %ID/g
In vivo [3]; Kidney uptake
  tissue uptake at 4 h: 8.96 ± 1.39 %ID/g
In vivo [3]; Liver uptake
  tissue uptake at 4 h: 2.28 ± 0.2 %ID/g
In vivo [3]; Lung uptake
  tissue uptake at 4 h: 2.43 ± 1.21 %ID/g
In vivo [3]; Muscle uptake
  tissue uptake at 4 h: 0.15 ± 0.02 %ID/g
In vivo [3]; SST(-)-tumor uptake
  tissue uptake at 4 h: 0.7 ± 0.08 %ID/g
In vivo [3]; Spleen uptake
  tissue uptake at 4 h: 0.84 ± 0.06 %ID/g
In vivo [3]; Stomach uptake
  tissue uptake at 4 h: 4.89 ± 0.94 %ID/g
